Results on 4 molecules are retold here after US20200079833A1 (AstraZeneca / MedImmune, published 2020).

To fix the notation:
T1: glucose-dependent insulinotropic peptide (gastric inhibitory polypeptide) receptor (GIPR), primary cAMP assay … (human, UniProt P48546 22-466)
T1 sequence (looked up): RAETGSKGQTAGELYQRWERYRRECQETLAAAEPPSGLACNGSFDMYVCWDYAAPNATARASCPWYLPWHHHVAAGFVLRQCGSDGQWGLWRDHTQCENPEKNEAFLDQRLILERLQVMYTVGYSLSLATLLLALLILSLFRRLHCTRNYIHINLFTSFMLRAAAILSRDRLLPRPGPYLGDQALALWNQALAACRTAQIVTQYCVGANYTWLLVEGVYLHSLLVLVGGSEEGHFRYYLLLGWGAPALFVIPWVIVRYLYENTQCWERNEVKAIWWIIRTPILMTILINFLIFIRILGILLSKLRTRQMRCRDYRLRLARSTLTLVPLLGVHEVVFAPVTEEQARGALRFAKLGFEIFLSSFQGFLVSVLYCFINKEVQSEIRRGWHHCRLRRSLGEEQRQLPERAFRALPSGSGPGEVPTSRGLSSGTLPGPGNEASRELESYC

T2: GLP-1R in the INS1e assay (UniProt P32301 22-463, limits assumed)
T2 sequence (looked up): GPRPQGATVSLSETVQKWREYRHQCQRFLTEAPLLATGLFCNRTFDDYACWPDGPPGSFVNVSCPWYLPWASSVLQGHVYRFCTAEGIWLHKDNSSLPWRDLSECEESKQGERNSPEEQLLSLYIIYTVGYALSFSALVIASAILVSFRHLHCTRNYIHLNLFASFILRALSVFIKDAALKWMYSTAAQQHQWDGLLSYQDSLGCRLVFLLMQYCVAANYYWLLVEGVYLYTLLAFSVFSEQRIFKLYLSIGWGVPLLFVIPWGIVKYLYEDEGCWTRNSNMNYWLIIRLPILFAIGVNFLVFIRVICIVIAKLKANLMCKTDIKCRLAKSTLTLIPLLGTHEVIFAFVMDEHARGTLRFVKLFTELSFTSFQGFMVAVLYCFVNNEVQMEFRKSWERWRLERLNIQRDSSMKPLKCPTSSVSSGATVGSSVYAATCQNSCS

Starred links: 1 amine or outer side, 2 acyl side, 3 side chain; linkers in the order of their positions; H or OH if unused. Non-standard residues stand in square brackets, D forms with d. Groups on a side chain read outwards from the residue. Primed or numbered codes have the meaning given here. No end group written: not given here. *: point of attachment. γGlu = O=C(O)[C@H](CCC(=O)[*:2])N[*:1]; αMeF = C[C@](N)(Cc1ccccc1)C(=O)O; αMeK = C[C@](N)(CCCCN)C(=O)O; Lauroyl = CCCCCCCCCCCC(=O)*; αMeS = C[C@](N)(CO)C(=O)O; PEG2′ = not defined here; Aib = CC(C)(N)C(=O)O

In one assay the target is glucagon receptor (GCGR), primary cAMP assay cell line (human, UniProt P47871 26-477). The experiment in a line: cell-based or functional assay.
glucagon receptor (GCGR), primary cAMP assay cell line, sequence (P47871 26-477): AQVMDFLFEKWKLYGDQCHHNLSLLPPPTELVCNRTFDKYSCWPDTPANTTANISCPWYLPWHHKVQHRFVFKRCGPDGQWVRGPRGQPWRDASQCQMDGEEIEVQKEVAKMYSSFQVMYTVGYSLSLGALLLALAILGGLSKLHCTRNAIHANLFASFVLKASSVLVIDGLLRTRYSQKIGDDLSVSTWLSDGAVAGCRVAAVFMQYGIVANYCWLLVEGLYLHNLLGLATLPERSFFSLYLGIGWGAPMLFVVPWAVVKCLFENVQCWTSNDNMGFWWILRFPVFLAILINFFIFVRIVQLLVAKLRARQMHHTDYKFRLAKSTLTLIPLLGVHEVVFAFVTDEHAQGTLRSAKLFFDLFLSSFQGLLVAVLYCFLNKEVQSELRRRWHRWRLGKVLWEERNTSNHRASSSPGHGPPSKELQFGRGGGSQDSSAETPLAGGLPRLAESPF
Take H[Aib]EGS[αMeF]TSDV[αMeS]SYK([PEG2′-PEG2′-γGlu-Lauroyl])EGEK([PEG2′-PEG2′-γGlu-Lauroyl])A[αMeK]EFIAK([PEG2′-PEG2′-γGlu-Lauroyl])VVEGG-NH2 [SEQ ID NO: 469]: the “cAMP Primary assay EC50, n1” value came out at 19.8 nM and the “cAMP Primary assay EC50, n2” value worked out at 19.8 nM.
Take H[Aib]EGS[αMeF]TSDV[αMeS]SK([PEG2′-PEG2′-γGlu-Lauroyl])LEGK([PEG2′-PEG2′-γGlu-Lauroyl])AA[αMeK]EFIAFK([PEG2′-PEG2′-γGlu-Lauroyl])VEGG-NH2 [SEQ ID NO: 480]: the “cAMP Primary assay EC50, n1” value amounted to 20 nM and the “cAMP Primary assay EC50, n2” value came to 20 nM.
On to H[Aib]EGS[αMeF]TSDV[αMeS]SYK([PEG2′-PEG2′-γGlu-Lauroyl])EGEAA[αMeK]K([PEG2′-PEG2′-γGlu-Lauroyl])FIAK([PEG2′-PEG2′-γGlu-Lauroyl])VVEGG-NH2 [SEQ ID NO: 470], for which the “cAMP Primary assay EC50, n1” value was found to be 20 nM and the “cAMP Primary assay EC50, n2” value came to 20 nM.
Regarding H[Aib]EGS[αMeF]TSDV[αMeS]SK([PEG2′-PEG2′-γGlu-Lauroyl])LEGEAA[αMeK]K([PEG2′-PEG2′-γGlu-Lauroyl])FIAFK([PEG2′-PEG2′-γGlu-Lauroyl])VEGG-NH2 [SEQ ID NO: 482], the “cAMP Primary assay EC50, n1” value is 20 nM and the “cAMP Primary assay EC50, n2” value came to 20 nM.

Another assay has as its target T1, glucose-dependent insulinotropic …. The experiment in a line: cell-based or functional assay.
As to H[Aib]EGS[αMeF]TSDV[αMeS]SYK([PEG2′-PEG2′-γGlu-Lauroyl])EGEK([PEG2′-PEG2′-γGlu-Lauroyl])A[αMeK]EFIAK([PEG2′-PEG2′-γGlu-Lauroyl])VVEGG-NH2 [SEQ ID NO: 469], the “cAMP Primary assay EC50, n1” value worked out at 19.8 nM and the “cAMP Primary assay EC50, n2” value was determined as 19.8 nM.
Turning to H[Aib]EGS[αMeF]TSDV[αMeS]SK([PEG2′-PEG2′-γGlu-Lauroyl])LEGK([PEG2′-PEG2′-γGlu-Lauroyl])AA[αMeK]EFIAFK([PEG2′-PEG2′-γGlu-Lauroyl])VEGG-NH2 [SEQ ID NO: 480], the “cAMP Primary assay EC50, n1” value was 20 nM and the “cAMP Primary assay EC50, n2” value worked out at 20 nM.
Consider H[Aib]EGS[αMeF]TSDV[αMeS]SYK([PEG2′-PEG2′-γGlu-Lauroyl])EGEAA[αMeK]K([PEG2′-PEG2′-γGlu-Lauroyl])FIAK([PEG2′-PEG2′-γGlu-Lauroyl])VVEGG-NH2 [SEQ ID NO: 470], for which the “cAMP Primary assay EC50, n1” value was determined as 20 nM and the “cAMP Primary assay EC50, n2” value amounted to 20 nM.
For the molecule H[Aib]EGS[αMeF]TSDV[αMeS]SK([PEG2′-PEG2′-γGlu-Lauroyl])LEGEAA[αMeK]K([PEG2′-PEG2′-γGlu-Lauroyl])FIAFK([PEG2′-PEG2′-γGlu-Lauroyl])VEGG-NH2 [SEQ ID NO: 482], the “cAMP Primary assay EC50, n1” value amounted to 20 nM and the “cAMP Primary assay EC50, n2” value was 20 nM.

In another assay the target is GLP-1 receptor (GLP-1R), primary cAMP assay cell line (human, UniProt P43220 24-463). The assay is described as follows: cell-based or functional assay.
As for H[Aib]EGS[αMeF]TSDV[αMeS]SYK([PEG2′-PEG2′-γGlu-Lauroyl])EGEK([PEG2′-PEG2′-γGlu-Lauroyl])A[αMeK]EFIAK([PEG2′-PEG2′-γGlu-Lauroyl])VVEGG-NH2 [SEQ ID NO: 469], the “cAMP Primary assay EC50, Mean pM GLP-1R” value was determined as 45.4 pM; the “cAMP Primary assay EC50, n1” value is 0.0418 nM; the “cAMP Primary assay EC50, n2” value was 0.049 nM.
The like results for H[Aib]EGS[αMeF]TSDV[αMeS]SK([PEG2′-PEG2′-γGlu-Lauroyl])LEGK([PEG2′-PEG2′-γGlu-Lauroyl])AA[αMeK]EFIAFK([PEG2′-PEG2′-γGlu-Lauroyl])VEGG-NH2 [SEQ ID NO: 480] were, in that order, 57.5 pM, 0.056 nM and 0.0589 nM.
The like results for H[Aib]EGS[αMeF]TSDV[αMeS]SYK([PEG2′-PEG2′-γGlu-Lauroyl])EGEAA[αMeK]K([PEG2′-PEG2′-γGlu-Lauroyl])FIAK([PEG2′-PEG2′-γGlu-Lauroyl])VVEGG-NH2 [SEQ ID NO: 470] were, in that order, 31.3 pM, 0.026 nM and 0.0365 nM.
With H[Aib]EGS[αMeF]TSDV[αMeS]SK([PEG2′-PEG2′-γGlu-Lauroyl])LEGEAA[αMeK]K([PEG2′-PEG2′-γGlu-Lauroyl])FIAFK([PEG2′-PEG2′-γGlu-Lauroyl])VEGG-NH2 [SEQ ID NO: 482], the “cAMP Primary assay EC50, Mean pM GLP-1R” value came to 36.3 pM; the “cAMP Primary assay EC50, n1” value came to 0.0283 nM; the “cAMP Primary assay EC50, n2” value turned out to be 0.0442 nM.

A further assay deals with T2, GLP-1R in the INS1e assay. The assay is described as follows: cell-based or functional assay.
Regarding H[Aib]EGS[αMeF]TSDV[αMeS]SYK([PEG2′-PEG2′-γGlu-Lauroyl])EGEK([PEG2′-PEG2′-γGlu-Lauroyl])A[αMeK]EFIAK([PEG2′-PEG2′-γGlu-Lauroyl])VVEGG-NH2 [SEQ ID NO: 469], the “cAMP INS1e assay EC50, Mean pM GLP-1R” value worked out at 4900 pM; the “cAMP INS1e assay EC50, n1” value was determined as 6.9 nM; the “cAMP INS1e assay EC50, n2” value came out at 2.89 nM.
For the molecule H[Aib]EGS[αMeF]TSDV[αMeS]SK([PEG2′-PEG2′-γGlu-Lauroyl])LEGK([PEG2′-PEG2′-γGlu-Lauroyl])AA[αMeK]EFIAFK([PEG2′-PEG2′-γGlu-Lauroyl])VEGG-NH2 [SEQ ID NO: 480], the “cAMP INS1e assay EC50, Mean pM GLP-1R” value amounted to 6530 pM; the “cAMP INS1e assay EC50, n1” value was determined as 9.37 nM; the “cAMP INS1e assay EC50, n2” value came to 3.69 nM.
In the same order, the values of H[Aib]EGS[αMeF]TSDV[αMeS]SYK([PEG2′-PEG2′-γGlu-Lauroyl])EGEAA[αMeK]K([PEG2′-PEG2′-γGlu-Lauroyl])FIAK([PEG2′-PEG2′-γGlu-Lauroyl])VVEGG-NH2 [SEQ ID NO: 470] are 3660 pM, 3.84 nM and 3.48 nM.
In the same order, the values of H[Aib]EGS[αMeF]TSDV[αMeS]SK([PEG2′-PEG2′-γGlu-Lauroyl])LEGEAA[αMeK]K([PEG2′-PEG2′-γGlu-Lauroyl])FIAFK([PEG2′-PEG2′-γGlu-Lauroyl])VEGG-NH2 [SEQ ID NO: 482] are 5860 pM, 8.57 nM and 3.15 nM.
